T1: maltose binding protein (MBP)-tagged IFIT1 (human, UniProt P09914-1 1-478)
T1 sequence (looked up): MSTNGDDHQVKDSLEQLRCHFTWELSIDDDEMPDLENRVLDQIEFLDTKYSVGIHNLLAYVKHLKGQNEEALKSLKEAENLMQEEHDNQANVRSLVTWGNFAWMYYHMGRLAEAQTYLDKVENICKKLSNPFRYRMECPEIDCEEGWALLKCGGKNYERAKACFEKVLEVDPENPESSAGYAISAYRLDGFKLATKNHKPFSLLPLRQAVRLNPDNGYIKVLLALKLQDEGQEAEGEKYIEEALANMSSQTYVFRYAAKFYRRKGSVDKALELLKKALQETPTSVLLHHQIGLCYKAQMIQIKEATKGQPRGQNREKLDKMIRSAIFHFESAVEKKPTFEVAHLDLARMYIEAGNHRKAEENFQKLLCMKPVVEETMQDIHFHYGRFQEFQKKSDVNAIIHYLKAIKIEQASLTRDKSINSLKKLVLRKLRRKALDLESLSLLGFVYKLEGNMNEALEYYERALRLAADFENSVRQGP

B1: human IFIT3 (natural protein, UniProt O14879 1-490, looked up)
chain: MSEVTKNSLEKILPQLKCHFTWNLFKEDSVSRDLEDRVCNQIEFLNTEFKATMYNLLAYIKHLDGNNEAALECLRQAEELIQQEHADQAEIRSLVTWGNYAWVYYHLGRLSDAQIYVDKVKQTCKKFSNPYSIEYSELDCEEGWTQLKCGRNERAKVCFEKALEEKPNNPEFSSGLAIAMYHLDNHPEKQFSTDVLKQAIELSPDNQYVKVLLGLKLQKMNKEAEGEQFVEEALEKSPCQTDVLRSAAKFYRRKGDLDKAIELFQRVLESTPNNGYLYHQIGCCYKAKVRQMQNTGESEASGNKEMIEALKQYAMDYSNKALEKGLNPLNAYSDLAEFLETECYQTPFNKEVPDAEKQQSHQRYCNLQKYNGKSEDTAVQHGLEGLSISKKSTDKEEIKDQPQNVSENLLPQNAPNYWYLQGLIHKQNGDLLQAAKCYEKELGRLLRDAPSGIGSIFLSASELEDGSEEMGQGAVSSSPRELLSNSEQLN
B2: human IFIT1 (natural protein, UniProt P09914-1 1-478, looked up)
chain: MSTNGDDHQVKDSLEQLRCHFTWELSIDDDEMPDLENRVLDQIEFLDTKYSVGIHNLLAYVKHLKGQNEEALKSLKEAENLMQEEHDNQANVRSLVTWGNFAWMYYHMGRLAEAQTYLDKVENICKKLSNPFRYRMECPEIDCEEGWALLKCGGKNYERAKACFEKVLEVDPENPESSAGYAISAYRLDGFKLATKNHKPFSLLPLRQAVRLNPDNGYIKVLLALKLQDEGQEAEGEKYIEEALANMSSQTYVFRYAAKFYRRKGSVDKALELLKKALQETPTSVLLHHQIGLCYKAQMIQIKEATKGQPRGQNREKLDKMIRSAIFHFESAVEKKPTFEVAHLDLARMYIEAGNHRKAEENFQKLLCMKPVVEETMQDIHFHYGRFQEFQKKSDVNAIIHYLKAIKIEQASLTRDKSINSLKKLVLRKLRRKALDLESLSLLGFVYKLEGNMNEALEYYERALRLAADFENSVRQGP

Assays:
[1] = target: T1, maltose binding protein (MBP)-tagged …; experiment: pull-down
human IFIT1 = target: B2; experiment: ITC
human IFIT3 = target: B1; experiment: ITC

Binder	dH (human IFIT1)	stoichiometry N (human IFIT1)	Kd (human IFIT3)	also measured
chimeric construct Ifit3-IFIT3CTD (other, mouse | human, UniProt Q64345 1-403, looked up) MSEVNRESLEAILPQLKCHFTWNLFREGSMSSHMEDRVCNQVEHLNSEEKATMYDLLAYIKHLDGESKAALECLGQAEDLRKSEHNDQSEIRRLVTWGNYAWIYYHMGRLSEAQAYVDKVRQVCQKFANPYSMECPELECEEGWTRLKCGRNERAKMCFEKALEEKPKDPECSSGMAIAMFRLEEKPEKQFSVDALKQAMELNPQNQYLKVLLALKLLRMGEEAEGERLIKDALGKAPNQTDVLQKAAQFYKKKGNLDRAIELLGKALRSTVNNSPLYSLVMCRYREILEQLQNKGDADSSERRQRMAELRRLTMEFMQKTLQRRRSPLNSYSDLIDFPEVERCYQMVISKESPDVEEEDLYERYCNLQEYHRKSEDLAALECLLQFPRNERSIEKEEVKEQTQNVSENLLPQNAPNYWYLQGLIHKQNGDLLQAAKCYEKELGRLLRDAPSGIGSIFLSASELEDGSEEMGQGAVSSSPRELLSNSEQLN				binding result [1]: binds
B1	-13 kcal/mol	0.93 ± 0.01		
IFIT3 403–490 (IFIT3CTD) (domain or fragment, human, UniProt O14879 403-490, looked up) QNVSENLLPQNAPNYWYLQGLIHKQNGDLLQAAKCYEKELGRLLRDAPSGIGSIFLSASELEDGSEEMGQGAVSSSPRELLSNSEQLN	-17 kcal/mol	0.97 ± 0.03		Kd (human IFIT1): 1.4 ± 3.1 nM
IFIT1 RNA binding mutant (R38A and K151A) (natural protein, human, UniProt P09914-1 1-478, looked up) MSTNGDDHQVKDSLEQLRCHFTWELSIDDDEMPDLENAVLDQIEFLDTKYSVGIHNLLAYVKHLKGQNEEALKSLKEAENLMQEEHDNQANVRSLVTWGNFAWMYYHMGRLAEAQTYLDKVENICKKLSNPFRYRMECPEIDCEEGWALLACGGKNYERAKACFEKVLEVDPENPESSAGYAISAYRLDGFKLATKNHKPFSLLPLRQAVRLNPDNGYIKVLLALKLQDEGQEAEGEKYIEEALANMSSQTYVFRYAAKFYRRKGSVDKALELLKKALQETPTSVLLHHQIGLCYKAQMIQIKEATKGQPRGQNREKLDKMIRSAIFHFESAVEKKPTFEVAHLDLARMYIEAGNHRKAEENFQKLLCMKPVVEETMQDIHFHYGRFQEFQKKSDVNAIIHYLKAIKIEQASLTRDKSINSLKKLVLRKLRRKALDLESLSLLGFVYKLEGNMNEALEYYERALRLAADFENSVRQGP			2.1 ± 6 nM	
B2			1.5 ± 2 nM	
